{
  "source": "patent US20260176659A1",
  "about": "“IMPROVED METHOD FOR THE PRODUCTION OF NATURAL VANILLIN” (BASE SE, priority 2022, published 2026)",
  "molecules": {"B1": {"name": "CO-25: cleavage oxygenase from Novosphingobium aromaticivorans (Uniprot: Q2GA76), SEQ ID NO: 134 (protein)", "chain": "MAQFPNTPSFTGFNTPSRIEADIADLAHEGTIPQGLNGAFYRVQPDPQFPPRLDDDIAFNGDGMITRFHIHDGQVDFRQRWAKTDKWKLENAAGKALFGAYRNPLTDDEAVKGEIRSTANTNAFVFGGKLWAMKEDSPALVMDPATMETFGFEKFGGKMTGQTFTAHPKVDPKTGNMVAIGYAASGLCTDDVTYMEVSPEGELVREVWFKVPYYCMMHDFGITEDYLVLHIVPSIGSWERLEQGKPHFGFDTTMPVHLGIIPRRDGVRQEDIRWFTRDNCFASHVLNAWQEGTKIHFVTCEAKNNMFPFFPDVHGAPFNGMEAMSHPTDWVVDMASNGEDFAGIVKLSDTAAEFPRIDDRFTGQKTRHGWFLEMDMKRPVELRGGSAGGLLMNCLFHKDFETGREQHWWCGPVSSLQEPCFVPRAKDAPEGDGWIVQVCNRLEEQRSDLLIFDALDIEKGPVATVNIPIRLRFGLHGNWANADEIGLAEKVLAA", "modifications": "Novosphingobium aromaticivorans"}},
  "format_in_all_cases": "biochemical",
  "key": {"[1]": {"assay": "Subsequent screening of alkene cleavage oxygenases: activity with coniferyl alcohol", "protocol": "Therefore, 50 mL TB-Kan medium in a 250 mL shake flask were inoculated with an overnight preculture of E. coi BL21 (DE3) carrying a pET-28a plasmid encoding CO-25 in the expression cassette. At OD600 ˜0.8-1, the expression was induced with 0.1 mM IPTG and the culture incubated at 25° C. for 20 hours. 0.5 mM FeSO4*7H2O was added together with the inducer. Then, the cells were disrupted by sonication in Glycine-NaOH 50 mM pH 9.0 containing 1 mM FeSO4*7H2O and 1 mM sodium ascorbate. After centrifugation, the cell free extract was lyophilized and stored at −20° C. From 50 mL cell culture we obtained 235 mg of freeze-dried cell free extract."}, "[2]": {"assay": "Conversion of 50 mM coniferyl alcohol to vanillin by CO-25", "details": "for Intermediate and product distribution at 24 hours 2a [%] / Intermediate and product distribution at 24 hours 3a [%] / Intermediate and product distribution at 24 hours 5a [%] / 2a / 3a / 5a / Conv. [%]: CO-25 3 mg CFE, catalase 4 mg, 0.4 mL, 50 mM coniferyl alcohol 2a; for 2a / 3a / 5a / Conv. [%]: 24 hours", "protocol": "In each well of a deep-well-plate sealed with a gas permeable tape we mixed CO-25 (3 mg CFE) and catalase (4 mg) with coniferyl alcohol 2a (3.6 mg, 0.02 mL from 1M stock, final conc.: 50 mM) to a final volume of 0.4 mL. After one day incubation shaking at 290 rpm we obtained 40-46% conversion of coniferyl alcohol 2a to vanillin 3a (Table 10)."}, "[3]": {"assay": "Bioconversion of eugenol to vanillin: one-pot concurrent cascade EUGO + alkene cleavage oxygenase (5 mM scale)", "details": "5 mM eugenol; for Intermediate and product distribution at 24 hours 2a [%] / Intermediate and product distribution at 24 hours 3a [%] / Intermediate and product distribution at 24 hours 5a [%] / 2a / 3a / 5a / Conv. [%] ((3a mM)/5*100): EUGO 0.5 mg CFE, CO-25 3 mg CFE, catalase 5 mg; for 2a / 3a / 5a / Conv. [%] ((3a mM)/5*100): 24 hours", "method_in_brief": "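Cell-free extracts of EUGO (0.5 mg) and cleavage oxygenase (3 mg) were combined with catalase, 1 mM FeSO4 and 1 mM ascorbate in glycine-NaOH pH 9.0 (or Tris-HCl pH 8.0). The cascade ran with 5 mM eugenol (5% ethanol/DMSO cosolvent) at 30° C and 120 rpm overnight. Methanol-quenched samples were analysed by HPLC at 280/340 nm.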"}},
  "note": "Where “and” joins values, the source holds several entries; their conditions need not be identical. Equal values may be shown once.",
  "data": [
    {"molecule": "B1", "values": [
      {"measurement": "activity with coniferyl alcohol in comparison to NOV1 mutant S283F", "setting": "[1]", "result": "significant higher activity"},
      {"measurement": "Intermediate and product distribution at 24 hours 2a [%]", "setting": "[2]; pH 8", "result": 47.7, "unit": "%"},
      {"measurement": "Intermediate and product distribution at 24 hours 3a [%]", "setting": "[2]; pH 8", "result": 51.1, "unit": "%"},
      {"measurement": "Intermediate and product distribution at 24 hours 5a [%]", "setting": "[2]; pH 8", "result": 1.1, "unit": "%"},
      {"measurement": "2a", "setting": "[2]; pH 8", "result": 21.48, "unit": "mM"},
      {"measurement": "3a", "setting": "[2]; pH 8", "result": 23.01, "unit": "mM"},
      {"measurement": "5a", "setting": "[2]; pH 8", "result": 0.52, "unit": "mM"},
      {"measurement": "Conv. [%]", "setting": "[2]; pH 8", "result": 46.0, "unit": "%"},
      {"measurement": "Intermediate and product distribution at 24 hours 2a [%]", "setting": "[2]; pH 9", "result": 52.5, "unit": "%"},
      {"measurement": "Intermediate and product distribution at 24 hours 3a [%]", "setting": "[2]; pH 9", "result": 45.7, "unit": "%"},
      {"measurement": "Intermediate and product distribution at 24 hours 5a [%]", "setting": "[2]; pH 9", "result": 1.9, "unit": "%"},
      {"measurement": "2a", "setting": "[2]; pH 9", "result": 22.87, "unit": "mM"},
      {"measurement": "3a", "setting": "[2]; pH 9", "result": 19.92, "unit": "mM"},
      {"measurement": "5a", "setting": "[2]; pH 9", "result": 0.81, "unit": "mM"},
      {"measurement": "Conv. [%]", "setting": "[2]; pH 9", "result": 39.8, "unit": "%"},
      {"measurement": "conversion of coniferyl alcohol 2a to vanillin 3a", "setting": "[2]; CO-25, 50 mM 2a, one day incubation", "result": "40-46%"},
      {"measurement": "Intermediate and product distribution at 24 hours 2a [%]", "setting": "[3]; pH 8", "result": "16.4% and 17.1%"},
      {"measurement": "Intermediate and product distribution at 24 hours 3a [%]", "setting": "[3]; pH 8", "result": "83.1% and 82.4%"},
      {"measurement": "Intermediate and product distribution at 24 hours 5a [%]", "setting": "[3]; pH 8", "result": 0.5, "unit": "%"},
      {"measurement": "2a", "setting": "[3]; pH 8", "result": "4.18 mM and 4.39 mM"},
      {"measurement": "3a", "setting": "[3]; pH 8", "result": "4.18 mM and 4.39 mM"},
      {"measurement": "5a", "setting": "[3]; pH 8", "result": 0.03, "unit": "mM"},
      {"measurement": "Conv. [%] ((3a mM)/5*100)", "setting": "[3]; pH 8", "result": "83.5% and 87.7%"},
      {"measurement": "Intermediate and product distribution at 24 hours 2a [%]", "setting": "[3]; pH 9", "result": "12.8% and 11.6%"},
      {"measurement": "Intermediate and product distribution at 24 hours 3a [%]", "setting": "[3]; pH 9", "result": "86.3% and 87.5%"},
      {"measurement": "Intermediate and product distribution at 24 hours 5a [%]", "setting": "[3]; pH 9", "result": 0.9, "unit": "%"},
      {"measurement": "2a", "setting": "[3]; pH 9", "result": "4.31 mM and 4.21 mM"},
      {"measurement": "3a", "setting": "[3]; pH 9", "result": "4.31 mM and 4.21 mM"},
      {"measurement": "5a", "setting": "[3]; pH 9", "result": "0.05 mM and 0.04 mM"},
      {"measurement": "Conv. [%] ((3a mM)/5*100)", "setting": "[3]; pH 9", "result": "86.2% and 84.2%"},
      {"measurement": "conversion to vanillin 3a", "setting": "[3]; EUGO and CO-25, 0.5 mL scale, pH 8 and 9", "result": "83-88%"}
    ]}
  ]
}
